Three molecules from article PMC9814530, “Rapid de novo discovery of peptidomimetic affinity reagents for human angiotensin converting enzyme 2” (Communications Chemistry, 2022) can be followed below.

The test addresses T1, human angiotensin converting enzyme 2 (ACE2), recombinant (human, UniProt Q9BYF1 18-740).
T1 construct: also called soluble ACE2; recombinant ACE2 protein; source: bought: Sino Biological (Catalog number 10108-H08H) for BLI
Briefly: BLI; biotinylated peptide immobilised on streptavidin tips (loaded at 1.0-2.0 uM); protein in solution (ACE2 at 1000, 500, 250, 125 and 62.5 nM); 30 °C, 1000 rpm; 1 x PBS with 0.1% BSA and 0.02% Tween-20; 180 s association; global 1:1 fit; apparent KD. As to conditions: both partners purified.

Where no end group is shown, it is not given here.

T1 sequence (Q9BYF1 18-740): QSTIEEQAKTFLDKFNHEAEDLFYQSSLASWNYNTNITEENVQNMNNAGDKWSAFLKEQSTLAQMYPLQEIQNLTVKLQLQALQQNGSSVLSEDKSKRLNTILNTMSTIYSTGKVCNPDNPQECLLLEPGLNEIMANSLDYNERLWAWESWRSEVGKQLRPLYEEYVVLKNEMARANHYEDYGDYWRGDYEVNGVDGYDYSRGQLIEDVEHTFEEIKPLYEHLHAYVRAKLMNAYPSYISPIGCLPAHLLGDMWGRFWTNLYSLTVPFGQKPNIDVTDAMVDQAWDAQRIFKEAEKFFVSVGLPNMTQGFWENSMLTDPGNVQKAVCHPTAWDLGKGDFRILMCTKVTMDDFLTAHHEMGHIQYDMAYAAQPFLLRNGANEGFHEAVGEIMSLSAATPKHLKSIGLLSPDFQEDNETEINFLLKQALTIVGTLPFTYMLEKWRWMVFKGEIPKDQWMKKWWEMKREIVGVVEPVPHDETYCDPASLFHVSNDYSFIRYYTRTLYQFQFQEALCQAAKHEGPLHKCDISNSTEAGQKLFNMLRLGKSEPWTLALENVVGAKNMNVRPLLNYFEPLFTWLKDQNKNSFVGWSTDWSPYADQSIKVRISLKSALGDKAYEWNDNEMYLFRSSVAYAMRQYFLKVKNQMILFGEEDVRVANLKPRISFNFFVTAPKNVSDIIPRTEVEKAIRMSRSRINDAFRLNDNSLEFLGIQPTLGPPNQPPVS

LHKQFGWHWFGFK-NH2 (also: biotinylated, position not given here) [ACE2-binding peptide ABP C3]: the Kd was 35 nM.

As to LQRGVFGFPYRVK-NH2 (also: biotinylated, position not given here) [ACE2-binding peptide ABP C7], the Kd was determined as 26 nM.

LQWHPAYWFMQVK-NH2 (also: biotinylated, position not given here) [ACE2-binding peptide ABP C8]: the Kd stood at 36 nM.
